Experimental data: patent US20220249439A1 (FRED HUTCHINSON CANCER RESEARCH CENTER, published 2022)

Biological target: T1, eIF4E (mouse, endogenous in Pten^L/L prostate tissue) (mouse, UniProt P63073 2-217)
T1 construct: Endogenous protein in mouse prostate tumor tissue, detected with an antibody (SCBT) in a proximity ligation assay; also called eIF4E translation initiation factor; eukaryotic translation initiation factor 4E
Experiment: in situ proximity ligation assay on castrate vs intact Pten^L/L mouse prostate tumors; confirmed by m7GTP cap-binding assay
Protocol: Flash frozen intact and castrate Pten^{L/L} ventral prostates dissected from each animal or from AR+ parental and AR− APIPC tumors were pulverized with mortar and pestle in appropriate volumes of lysis buffer containing 10 mM Tris/HCL pH 7.6, 140 mM KCl, 4 mM MgCl₂, 1 mM DTT, 1 mM EDTA, 1% Nonidet P-40 supplemented with phosphatase and protease inhibitor cocktails (Roche) and lysed for 30 min on ice. Lysates were cleared by centrifugation at 12000 rpm for 25 min at 4° C. Supernatants were collected and assayed for protein concentration using the Protein Assay Dye Reagent (Bio-Rad). 250 μg of protein were incubated rotating with 50 μl of γ-aminophenyl-m7GTP (C10-spacer)-agarose beads (Jena Bioscience) in lysis buffer without Nonidet P-40 at 4° C. overnight. After two washes in lysis buffer containing 0.5% Nonidet P-40 and two washes in PBS, beads were re-suspended in 60 μl of 1×SDS loading buffer and boiled for 5 min. Thirty microliters of boiled lysates were western blotted for eIF4G, eIF4E, and 4EBP1.
To test this hypothesis, proximity ligation assays (PLA) for eIF4E-eIF4G interactions and eIF4E-4EBP1 interactions were optimized (FIG. 2A). […] This was also confirmed by the cap-binding assay (FIG. 11A). […]

T1 sequence (P63073 2-217 limits assumed): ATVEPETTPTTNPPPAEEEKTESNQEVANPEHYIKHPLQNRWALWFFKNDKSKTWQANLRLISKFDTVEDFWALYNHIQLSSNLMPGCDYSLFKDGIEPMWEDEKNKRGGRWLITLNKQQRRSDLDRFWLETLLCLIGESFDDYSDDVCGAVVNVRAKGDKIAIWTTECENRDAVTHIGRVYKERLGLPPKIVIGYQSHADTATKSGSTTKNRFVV

binding result: binds
B1: 4EBP1 (mouse, endogenous in Pten^L/L prostate tissue) (other, UniProt Q60876 2-117, looked up)
chain: SAGSSCSQTPSRAIPTRRVALGDGVQLPPGDYSTTPGGTLFSTTPGGTRIIYDRKFLMECRNSPVAKTPPKDLPAIPGVTSPTSDEPPMQASQSQLPSSPEDKRAGGEESQFEMDI
notes: Endogenous protein
